Data set [1] concerns the molecule itself. The data set can be described thus: not stated; in vivo in M. truncatula under drought stress (Supplementary Fig. 2a).
Data set [2] concerns the molecule itself. The data set can be described thus: nonreducing capillary electrophoresis immunoassay (Simple Jess) + other: nonreducing SDS-PAGE with immunoblot; root lysates of p35S:APT1-GFP/apt1 plants after 4 mM H2O2 for 15 min to 6 h (also 1 dpi with F. oxysporum); DTT-free buffers, samples not heated, anti-GFP. On the technique in general: In western blotting, separated proteins are transferred to a membrane and probed.

Data set [3] concerns the molecule itself. Kind of data set: nonreducing SDS-PAGE with immunoblot; 6 × His-APT1 proteins after Ni purification from E. coli, no reducing agent; Tris-Tricine SDS-PAGE system.

Values joined by “and” are separate entries in the source; they are usually repeats but may differ in a detail not shown here. Equal entries are not always repeated.

A word on the stoichiometry N: it is the number of molecules, sites or subunits per partner or assembly.

B1: APT1 in M. truncatula under drought stress (enzyme)
chain: not shown
notes: acyl-protein thioesterase 1 (APT1) of Medicago truncatula; May be the same APT1-GFP as m9 (surmised); source: in vivo in M. truncatula
On to B1, for which the “stoichiometry N” value in data set [1] came out at 4.

B2: APT1-GFP fusion protein (p35S:APT1-GFP) in M. truncatula apt1 roots (enzyme)
chain: not shown
notes: acyl-protein thioesterase 1 (APT1) of Medicago truncatula, cDNA from ecotype A17; Detected with anti-GFP; source: transgenic M. truncatula apt1 mutant roots (p35S:APT1-GFP), in lysate
B2: the “stoichiometry N” value in data set [2] is 4.

B3: 6 × His-APT1 fusion protein (acyl-protein thioesterase 1, Medicago truncatula) (enzyme)
chain: not shown
notes: acyl-protein thioesterase 1 (APT1, MtAPT1) of Medicago truncatula; cDNA amplified from ecotype A17; cysteines at C20, C22 and C37; The vector pET-30a(+) may add further vector-encoded residues (surmised); also called MtAPT1; pET-30a(+)-His-APT1
As for B3, in data set [3], the “stoichiometry N” value was 2 and 4.
